Assay results taken from US20210347873A1 (SHANGHAI PHARMAEXPLORER, published 2021).

B1: mouse-human chimeric BLyS antibody c8E7D9C7F5 (antibody, human IgG1, V domains shown)
VH: QVQLQQSGVELARPGASVKLSCKASGYTFTSYGISWVKQRTGQALEWIGEIYPRSGNTYYNEKFKGKATLTADKSSSTAYMELRSLTSEDSAVYFCARSGPITTLVATDYGMDYWGQGTSVTVSS
VL: DIVLTQSPASLAVSLGQRATISCRASKSVSTSSYSYMHWYQQKPGQPPKLLIKFASNLESGVPARFSGSGSGTDFTLNIHPVEEEDAATYYCQHSREFPYTFGGGTKLEIK
B2: humanized BLyS antibody h97A3C2H4-9 (antibody, human IgG1, V domains shown)
VH: EVQLVESGGGLVQPGGSLRLSCAASGFTFSTYTMSWVRQAPGKRLEWVAYISYGGGSTSYPDTVKGRFTISRDNAKNSLYLQMNSLRAEDTAVYYCTRHVTVVENSMDYWGQGTTVTVSS
VL: DILLTQSPDFQSVTPKEKVTITCRASQSIGTSIHWYQQKTDQSPKLLIKYVSESFSGTPSRFSGSGSGTDFTLTINSLEAEDAATYYCQQTHSWPWTFGGGTKVEIK
B3: humanized BLyS antibody h8E7D9C7F5-1 (antibody, human IgG1, V domains shown)
VH: EVQLVQSGAEVKKPGASVKVSCKASGYTFTSYGISWVRQAPGQGLEWMGEIYPRSGNTYYNEKFKGRVTMTTDTSTSTAYMELRSLRSDDTAVYYCARSGPITTLVATDYGMDYWGQGTTVTVSS
VL: DIVMTQSPDSLAVSLGERATINCRASKSVSTSSYSYMHWYQQKPGQPPKLLIKFASNLESGVPDRFSGSGSGTDFTLTISSLQAEDVAVYYCQHSREFPYTFGGGTKVEIK

The binders below were run against His-tagged extracellular domain of human BLyS protein (hBLyS-ECD), Ala134-Leu285 (human, UniProt Q9Y275 134-285) (assay: cell-based or functional assay).

**Q.** Which “mouse B lymphocyte proliferation stimulated by hBLyS-ECD (viable cell signal) at 0 nM antibody” value does the source give for B1 here?
**A.** 3640 OD450 nm (as headed)

**Q.** What about the “mouse B lymphocyte proliferation stimulated by hBLyS-ECD (viable cell signal) at 0.000256 nM antibody” value of the same binder?
**A.** 3310 OD450 nm (as headed)

**Q.** What about the “mouse B lymphocyte proliferation stimulated by hBLyS-ECD (viable cell signal) at 0.00128 nM antibody” value of the same binder?
**A.** 3360 OD450 nm (as headed)

**Q.** And the “mouse B lymphocyte proliferation stimulated by hBLyS-ECD (viable cell signal) at 0.0064 nM antibody” value?
**A.** 3020 OD450 nm (as headed)

**Q.** And the “mouse B lymphocyte proliferation stimulated by hBLyS-ECD (viable cell signal) at 0.032 nM antibody” value?
**A.** 2950 OD450 nm (as headed)

**Q.** What about the “mouse B lymphocyte proliferation stimulated by hBLyS-ECD (viable cell signal) at 0.16 nM antibody” value of the same binder?
**A.** 3200 OD450 nm (as headed)

**Q.** What about the “mouse B lymphocyte proliferation stimulated by hBLyS-ECD (viable cell signal) at 0.8 nM antibody” value of the same binder?
**A.** 408 OD450 nm (as headed)

**Q.** And the “mouse B lymphocyte proliferation stimulated by hBLyS-ECD (viable cell signal) at 4 nM antibody” value?
**A.** 187 OD450 nm (as headed)

**Q.** What about the “mouse B lymphocyte proliferation stimulated by hBLyS-ECD (viable cell signal) at 20 nM antibody” value of the same binder?
**A.** 187 OD450 nm (as headed)

**Q.** What about the “mouse B lymphocyte proliferation stimulated by hBLyS-ECD (viable cell signal) at 100 nM antibody” value of the same binder?
**A.** 116 OD450 nm (as headed)

**Q.** For B2, which “mouse B lymphocyte proliferation stimulated by hBLyS-ECD (viable cell signal) at 0 nM antibody” value is on record?
**A.** 3590 OD450 nm (as headed)

**Q.** What about the “mouse B lymphocyte proliferation stimulated by hBLyS-ECD (viable cell signal) at 0.000256 nM antibody” value of the same binder?
**A.** 3080 OD450 nm (as headed)

**Q.** What about the “mouse B lymphocyte proliferation stimulated by hBLyS-ECD (viable cell signal) at 0.00128 nM antibody” value of the same binder?
**A.** 3540 OD450 nm (as headed)

**Q.** What about the “mouse B lymphocyte proliferation stimulated by hBLyS-ECD (viable cell signal) at 0.0064 nM antibody” value of the same binder?
**A.** 2970 OD450 nm (as headed)

**Q.** What about the “mouse B lymphocyte proliferation stimulated by hBLyS-ECD (viable cell signal) at 0.032 nM antibody” value of the same binder?
**A.** 2960 OD450 nm (as headed)

**Q.** What about the “mouse B lymphocyte proliferation stimulated by hBLyS-ECD (viable cell signal) at 0.16 nM antibody” value of the same binder?
**A.** 2770 OD450 nm (as headed)

**Q.** What about the “mouse B lymphocyte proliferation stimulated by hBLyS-ECD (viable cell signal) at 0.8 nM antibody” value of the same binder?
**A.** 1110 OD450 nm (as headed)

**Q.** What about the “mouse B lymphocyte proliferation stimulated by hBLyS-ECD (viable cell signal) at 4 nM antibody” value of the same binder?
**A.** 217 OD450 nm (as headed)

**Q.** And the “mouse B lymphocyte proliferation stimulated by hBLyS-ECD (viable cell signal) at 20 nM antibody” value?
**A.** 137 OD450 nm (as headed)

**Q.** And the “mouse B lymphocyte proliferation stimulated by hBLyS-ECD (viable cell signal) at 100 nM antibody” value?
**A.** 127 OD450 nm (as headed)

**Q.** Which “mouse B lymphocyte proliferation stimulated by hBLyS-ECD (viable cell signal) at 0 nM antibody” value does the source give for B3 here?
**A.** 3480 OD450 nm (as headed)

**Q.** And the “mouse B lymphocyte proliferation stimulated by hBLyS-ECD (viable cell signal) at 0.000256 nM antibody” value?
**A.** 3000 OD450 nm (as headed)

**Q.** What about the “mouse B lymphocyte proliferation stimulated by hBLyS-ECD (viable cell signal) at 0.00128 nM antibody” value of the same binder?
**A.** 3120 OD450 nm (as headed)

**Q.** What about the “mouse B lymphocyte proliferation stimulated by hBLyS-ECD (viable cell signal) at 0.0064 nM antibody” value of the same binder?
**A.** 3200 OD450 nm (as headed)

**Q.** And the “mouse B lymphocyte proliferation stimulated by hBLyS-ECD (viable cell signal) at 0.032 nM antibody” value?
**A.** 2970 OD450 nm (as headed)

**Q.** What about the “mouse B lymphocyte proliferation stimulated by hBLyS-ECD (viable cell signal) at 0.16 nM antibody” value of the same binder?
**A.** 2730 OD450 nm (as headed)

**Q.** What about the “mouse B lymphocyte proliferation stimulated by hBLyS-ECD (viable cell signal) at 0.8 nM antibody” value of the same binder?
**A.** 951 OD450 nm (as headed)

**Q.** What about the “mouse B lymphocyte proliferation stimulated by hBLyS-ECD (viable cell signal) at 4 nM antibody” value of the same binder?
**A.** 209 OD450 nm (as headed)

**Q.** And the “mouse B lymphocyte proliferation stimulated by hBLyS-ECD (viable cell signal) at 20 nM antibody” value?
**A.** 152 OD450 nm (as headed)

**Q.** What about the “mouse B lymphocyte proliferation stimulated by hBLyS-ECD (viable cell signal) at 100 nM antibody” value of the same binder?
**A.** 131 OD450 nm (as headed)
